Here are results for eleven proteins from patent US20210115424A1 (University of California, published 2021).

Data set [1] concerns the target ^NSpaA, N-terminal domain of SpaA (residues 30-194) containing the pilin motif with K190.
Data set [2] addresses T1, SpaA derived sorting signal peptide KNAGFELPLTGGSGRI
T1 chain: KNAGFELPLTGGSGRI

Data set [3] concerns the molecule itself. Description: X-ray crystallography (homodimer in the crystal).
The target of data set [4] is sorting signal peptide (quantitative HPLC assay of Table 2).
Data set [5] deals with ^CSpaA, C-terminal domain of SpaA (residues 350-500) containing the LPLTG sorting signal.
In data set [6] the target is T2, pilin motif peptide DGWLQDVHVYPKHQALS
T2 chain: DGWLQDVHVYPKHQALS

Data set [7] has as its target T3, LPATG peptide KNAGFELPATGGSGRI
T3 chain: KNAGFELPATGGSGRI

In data set [8] the target is SpaA, soluble form (residues 30-500) lacking the N-terminal signal peptide and C-terminal membrane anchor domain.

B1: SrtA^2M N228A variant (protein)
chain: NNARQARVAQSYENSYEVDSPAVRDSVLEAARQYNTSVVGFPILGPGLNRASKNSGPYLDYLQQLNPQRAERPVIASISIPTIDAHLPIYHGTDTATLEHGLGHLYGSALPVGGTGTHPVITGHSGLANATLFDNLEDVKEHDPIYITVQGETLKYEVDAINVVLPEDTKLLAPDPNKDQITLITCTPYAVASHRLLVRAHRVDLDPNDPNLTQTGTKIWQ
As to B1, the “transpeptidation in vitro (ligation of ^NSpaA and ^CSpaA, SDS-PAGE)” value (“transpeptidation in vitro” below) in data set [1] is recorded as “defective in transpeptidation in vitro, as no isopeptide linked SpaA-SpaA product was produced even after 48 hours”. Further, the “hydrolysis of SpaApep (HPLC-based assay, SrtA^2M set as 100%)” value in data set [2] is “none of the mutants exhibited any significant defect in cleaving the LPXTG (SEQ ID NO. 5) motif”.

B2: SrtA^2M S229A variant (protein)
chain: NNARQARVAQSYENSYEVDSPAVRDSVLEAARQYNTSVVGFPILGPGLNRASKNSGPYLDYLQQLNPQRAERPVIASISIPTIDAHLPIYHGTDTATLEHGLGHLYGSALPVGGTGTHPVITGHSGLANATLFDNLEDVKEHDPIYITVQGETLKYEVDAINVVLPEDTKLLAPDPNKDQITLITCTPYAVNAHRLLVRAHRVDLDPNDPNLTQTGTKIWQ
As for B2, the “transpeptidation in vitro” value in data set [1] is recorded as “defective in transpeptidation in vitro, as no isopeptide linked SpaA-SpaA product was produced even after 48 hours”. Moreover, in data set [2], the “hydrolysis of SpaApep (HPLC-based assay, SrtA^2M set as 100%)” value is “none of the mutants exhibited any significant defect in cleaving the LPXTG (SEQ ID NO. 5) motif”.

B3: SrtA^2M Y225A variant (protein)
chain: NNARQARVAQSYENSYEVDSPAVRDSVLEAARQYNTSVVGFPILGPGLNRASKNSGPYLDYLQQLNPQRAERPVIASISIPTIDAHLPIYHGTDTATLEHGLGHLYGSALPVGGTGTHPVITGHSGLANATLFDNLEDVKEHDPIYITVQGETLKYEVDAINVVLPEDTKLLAPDPNKDQITLITCTPAAVNSHRLLVRAHRVDLDPNDPNLTQTGTKIWQ
Consider B3, for which, in data set [1], the “transpeptidation in vitro” value was “had impaired transpeptidation activity as well, but to a lesser extent than the S229A and N228A mutants”. For the same protein, the “hydrolysis of SpaApep (HPLC-based assay, SrtA^2M set as 100%)” value in data set [2] is listed as “none of the mutants exhibited any significant defect in cleaving the LPXTG (SEQ ID NO. 5) motif”.

B4: SrtA^2M N165A variant (protein)
chain: NNARQARVAQSYENSYEVDSPAVRDSVLEAARQYNTSVVGFPILGPGLNRASKNSGPYLDYLQQLNPQRAERPVIASISIPTIDAHLPIYHGTDTATLEHGLGHLYGSALPVGGTGTHPVITGHSGLAAATLFDNLEDVKEHDPIYITVQGETLKYEVDAINVVLPEDTKLLAPDPNKDQITLITCTPYAVNSHRLLVRAHRVDLDPNDPNLTQTGTKIWQ
With B4, the “transpeptidation in vitro” value in data set [1] is given as “this mutant retained near wild-type activity”. In addition, the “hydrolysis of SpaApep (HPLC-based assay, SrtA^2M set as 100%)” value in data set [2] is listed as “none of the mutants exhibited any significant defect in cleaving the LPXTG (SEQ ID NO. 5) motif”.

B5: Corynebacterium diphtheriae pilus-specific sortase SrtA, soluble catalytic domain fragment (residues 37-257), SrtA^WT (enzyme)
chain: NNARQARVAQSYENSYEVDSPAVRDSVLEAARQYNTSVVGFPILDPWLNRASKNSGPYLDYLQQLNPQRAERPVIASISIPTIDAHLPIYHGTDTATLEHGLGHLYGSALPVGGTGTHPVITGHSGLANATLFDNLEDVKEHDPIYITVQGETLKYEVDAINVVLPEDTKLLAPDPNKDQITLITCTPYAVNSHRLLVRAHRVDLDPNDPNLTQTGTKIWQ
notes: The His6-SUMO or His/TEV tag was removed after purification; also called CdSrtA^WT; Cd-SrtA
With B5, in data set [3], the binding result is reported as “binds”. Also, in data set [2], the Vmax of hydrolysis kinetics (HPLC-based assay, SpaApep cleavage) is 5.5 µM/h.

B6: CdSrtA^3M (CdSrtA D81G/W83G/N85A triple mutant) (protein)
chain: NNARQARVAQSYENSYEVDSPAVRDSVLEAARQYNTSVVGFPILGPGLARASKNSGPYLDYLQQLNPQRAERPVIASISIPTIDAHLPIYHGTDTATLEHGLGHLYGSALPVGGTGTHPVITGHSGLANATLFDNLEDVKEHDPIYITVQGETLKYEVDAINVVLPEDTKLLAPDPNKDQITLITCTPYAVNSHRLLVRAHRVDLDPNDPNLTQTGTKIWQ
On to B6, for which the “labeling of ^NSpaA with the sorting signal peptide (MALDI-MS)” value in data set [1] is recorded as >95% of ^NSpaA is labeled with the peptide. In data set [4], the Km (M) × 10^-4 amounted to 8e-05 M, the Vmax (s^-1) × 10^-9 amounted to 1.4e-09 s⁻¹, the kcat (s^-1) × 10^-5 was determined as 5.7e-05 s⁻¹ and the kcat/kM came out at 0.7 M⁻¹ s⁻¹. For the same protein, in data set [5], the “cross-linked ^NSpaAx^CSpaA product after 24 hour incubation, relative to CdSrtA^2M (gel densitometry)” value is 35% more product than CdSrtA^2M and the “cross-linked ^NSpaAx^CSpaA product after 24 hour incubation, relative to CdSrtA^WT (gel densitometry)” value is given as 10.6-fold more cross-linked ^NSpaAx^CSpaA product than CdSrtA^WT. Besides, the “ligation of the pilin motif peptide to ^CSpaA or to the sorting signal peptide (MALDI-MS)” value in data set [6] was “In both instances, no detectable product was observed”. Besides, the “HPLC-based sorting signal cleavage assay” value in data set [2] is reported as “the CdSrtA^3M triple mutant exhibits the highest level of activity in a HPLC-based sorting signal cleavage assay”. Also, the “hydrolysis of LPATG peptide (HPLC)” value in data set [7] is given as “CdSrtA^3M is unable to process any significant amount of peptide”.

B7: SrtA^2M (residues 37-257 of CdSrtA with D81G/W83G lid mutations) (protein)
chain: NNARQARVAQSYENSYEVDSPAVRDSVLEAARQYNTSVVGFPILGPGLNRASKNSGPYLDYLQQLNPQRAERPVIASISIPTIDAHLPIYHGTDTATLEHGLGHLYGSALPVGGTGTHPVITGHSGLANATLFDNLEDVKEHDPIYITVQGETLKYEVDAINVVLPEDTKLLAPDPNKDQITLITCTPYAVNSHRLLVRAHRVDLDPNDPNLTQTGTKIWQ
As to B7, the Vmax of hydrolysis kinetics (HPLC-based assay, SpaApep cleavage) in data set [2] was 6.3 µM/h.

B8: ΔSrtA^2M (SrtA^2M with the H1 helix, residues 37-54, removed) (protein)
chain: DSPAVRDSVLEAARQYNTSVVGFPILGPGLNRASKNSGPYLDYLQQLNPQRAERPVIASISIPTIDAHLPIYHGTDTATLEHGLGHLYGSALPVGGTGTHPVITGHSGLANATLFDNLEDVKEHDPIYITVQGETLKYEVDAINVVLPEDTKLLAPDPNKDQITLITCTPYAVNSHRLLVRAHRVDLDPNDPNLTQTGTKIWQ
In the case of B8, the “in vitro SpaA pilus polymerization (SDS-PAGE)” value in data set [8] is recorded as “the removal of the H1 helix in the SrtA^2M enzyme also abrogates pilus polymerization”. Also, the Vmax of hydrolysis kinetics (HPLC-based assay, SpaApep cleavage) in data set [2] came out at 6.3 µM/h.

B9: CdSrtA^Δ (CdSrtA active truncated variant with nine lid residues … deleted) (protein)
chain: NNARQARVAQSYENSYEVDSPAVRDSVLEAARQYNTSVVGFPSKNSGPYLDYLQQLNPQRAERPVIASISIPTIDAHLPIYHGTDTATLEHGLGHLYGSALPVGGTGTHPVITGHSGLANATLFDNLEDVKEHDPIYITVQGETLKYEVDAINVVLPEDTKLLAPDPNKDQITLITCTPYAVNSHRLLVRAHRVDLDPNDPNLTQTGTKIWQ
With B9, in data set [4], the Km (M) × 10^-4 was determined as 0.00016 M, the Vmax (s^-1) × 10^-9 was found to be 1e-08 s⁻¹, the kcat (s^-1) × 10^-5 was 0.0004 s⁻¹ and the kcat/kM came to 2.5 M⁻¹ s⁻¹.

B10: Staphylococcus aureus sortase A, wild type (protein)
chain: QAKPQIPKDKSKVAGYIEIPDADIKEPVYPGPATPEQLNRGVSFAEENESLDDQNISIAGHTFIDRPNYQFTNLKAAKKGSMVYFKVGNETRKYKMTSIRDVKPTDVGVLDEQKGKDKQLTLITCDDYNEKTGVWEKRKIFVATEVK
Consider B10, for which, in data set [7], the “hydrolysis of LPATG peptide (HPLC)” value was “SaSrtA robustly hydrolyzes the LPATG (SEQ ID NO. 5) peptide, as expected”.

B11: Staphylococcus aureus sortase A improved variant 4M (P94S/D160N/D165A/K196T) (protein)
chain: QAKPQIPKDKSKVAGYIEIPDADIKEPVYPGPATSEQLNRGVSFAEENESLDDQNISIAGHTFIDRPNYQFTNLKAAKKGSMVYFKVGNETRKYKMTSIRNVKPTAVGVLDEQKGKDKQLTLITCDDYNEKTGVWETRKIFVATEVK
For B11, the “hydrolysis of LPATG peptide (HPLC)” value in data set [7] is “almost entirely hydrolyzes the full length peptide after 24 hrs”.
